According to article PMC12557367 (2025):
Numbered stars: 1 amine (or outer) side, 2 acyl side, 3 side chain; on linkers, the order of the positions; unused ones are H or OH. Bridge positions count the residues as written; N and C are the ends. Square brackets hold non-standard residues; d marks the D form. * marks the point of attachment. (R)‑NODAGA = O=C(O)CN1CCN(CC(=O)O)CCN([C@H](CCC(=O)*)C(=O)O)CC1; DOTA = O=C(O)CN1CCN(CC(=O)O)CCN(CC(=O)*)CCN(CC(=O)O)CC1; TATA = O=C(CC[*:1])N1CN(C(=O)CC[*:2])CN(C(=O)CC[*:3])C1; Cys(et) = S-ethylcysteine, CCSC[C@H](N[*:1])C(=O)[*:2]; Ser(et) = O-ethylserine, CCOC[C@H](N[*:1])C(=O)[*:2]; 1Nal = N[C@@H](Cc1cccc2ccccc12)C(=O)O; 2Nal = N[C@@H](Cc1ccc2ccccc2c1)C(=O)O; Hyp = O=C(O)[C@@H]1C[C@@H](O)CN1; hArg = N=C(N)NCCCC[C@H](N)C(=O)O; Met(O) = CS(=O)CC[C@H](N)C(=O)O; SeMet = C[Se]CC[C@H](N)C(=O)O; Nle = CCCC[C@H](N)C(=O)O

T1: recombinant human nectin-4 (human, UniProt Q96NY8 32-349)
T1 chain: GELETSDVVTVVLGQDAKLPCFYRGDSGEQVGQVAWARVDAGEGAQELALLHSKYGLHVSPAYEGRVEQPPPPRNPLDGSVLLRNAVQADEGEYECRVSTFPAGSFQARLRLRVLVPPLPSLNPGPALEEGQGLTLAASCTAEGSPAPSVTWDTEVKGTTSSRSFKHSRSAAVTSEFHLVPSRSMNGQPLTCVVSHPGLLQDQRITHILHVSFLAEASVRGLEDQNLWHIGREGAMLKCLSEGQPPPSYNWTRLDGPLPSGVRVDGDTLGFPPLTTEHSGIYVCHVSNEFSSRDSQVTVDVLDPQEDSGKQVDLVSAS

B1: 7 (peptide)
chain: {(R)‑NODAGA}-CP[1Nal][dD]C[Cys(et)][hArg]DWSTP[Hyp]WC-NH2
modifications: linker 1-5-15 via TATA
SMILES: CCSC[C@@H]1NC(=O)[C@@H]2CSCCC(=O)N3CN(CN(C3)C(=O)CCSC[C@H](NC(=O)CC[C@H](C(=O)O)N3CCN(CC(=O)O)CCN(CC(=O)O)CC3)C(=O)N3CCC[C@H]3C(=O)N[C@@H](Cc3cccc4ccccc34)C(=O)N[C@H](CC(=O)O)C(=O)N2)C(=O)CCSC[C@@H](C(N)=O)NC(=O)[C@H](Cc2c[nH]c3ccccc23)NC(=O)[C@@H]2C[C@@H](O)CN2C(=O)[C@@H]2CCCN2C(=O)[C@H]([C@@H](C)O)NC(=O)[C@H](CO)NC(=O)[C@H](Cc2c[nH]c3ccccc23)NC(=O)[C@H](CC(=O)O)NC(=O)[C@H](CCCCNC(=N)N)NC1=O
B2: 6 (peptide)
chain: {(R)‑NODAGA}-CP[1Nal][dD]C[Ser(et)][hArg]DWSTP[Hyp]WC-NH2
modifications: linker 1-5-15 via TATA
SMILES: CCOC[C@@H]1NC(=O)[C@@H]2CSCCC(=O)N3CN(CN(C3)C(=O)CCSC[C@H](NC(=O)CC[C@H](C(=O)O)N3CCN(CC(=O)O)CCN(CC(=O)O)CC3)C(=O)N3CCC[C@H]3C(=O)N[C@@H](Cc3cccc4ccccc34)C(=O)N[C@H](CC(=O)O)C(=O)N2)C(=O)CCSC[C@@H](C(N)=O)NC(=O)[C@H](Cc2c[nH]c3ccccc23)NC(=O)[C@@H]2C[C@@H](O)CN2C(=O)[C@@H]2CCCN2C(=O)[C@H]([C@@H](C)O)NC(=O)[C@H](CO)NC(=O)[C@H](Cc2c[nH]c3ccccc23)NC(=O)[C@H](CC(=O)O)NC(=O)[C@H](CCCCNC(=N)N)NC1=O

Columns and labels:
[1] = biological target: T1, recombinant human nectin-4; test: FP
[2] = biological target: T1, recombinant human nectin-4; test: SPR
[3] = biological target: T1, recombinant human nectin-4; test: SPR

Row | Binder | IC50 [1] | koff [2] | Kd [3]
1 | {(R)‑NODAGA}-CP[1Nal][dD]CM[hArg]DWSTP[Hyp]WC-NH2 (linker 1-5-15 via TATA; also: NODAGA complexed with natGa) [natGa-1e] | 0.203 µM | – | –
2 | B1 | 0.151 µM | – | –
3 | {(R)‑NODAGA}-CP[2Nal][dD]CMRDWSTP[Hyp]WC-NH2 (linker 1-5-15 via TATA) [8a] | 0.479 µM | – | –
4 | {(R)‑NODAGA}-CP[1Nal][dD]CMRDWSTP[Hyp]WC-NH2 (linker 1-5-15 via TATA) [10] | 0.0321 µM | 0.00308 s⁻¹ | –
5 | {(R)‑NODAGA}-CP[2Nal][dD]CM[hArg]DWSTP[Hyp]WC-NH2 (linker 1-5-15 via TATA) [9] | 0.27 µM | 0.0361 s⁻¹ | 0.00285 µM
6 | {DOTA}-CP[1Nal][dD]CM[hArg]DWSTP[Hyp]WC-NH2 (linker 1-5-15 via TATA) [1f] | 0.177 µM | – | –
7 | H-CP[1Nal][dD]CM[hArg]DWSTP[Hyp]WC-NH2 (linker 1-5-15 via TATA) [1c] | 0.0518 µM | – | –
8 | {(R)‑NODAGA}-CP[1Nal][dD]CM[hArg]DWSTP[Hyp]WC-NH2 (linker 1-5-15 via TATA) [1e] | 0.0356 µM | – | –
9 | {(R)‑NODAGA}-CP[1Nal][dD]C[Met(O)][hArg]DWSTP[Hyp]WC-NH2 (linker 1-5-15 via TATA) [2] | 0.568 µM | – | –
10 | {(R)‑NODAGA}-CP[1Nal][dD]C[Nle][hArg]DWSTP[Hyp]WC-NH2 (linker 1-5-15 via TATA; also: NODAGA complexed with natCu) [natCu-3a] | 0.0454 µM | – | –
11 | {(R)‑NODAGA}-CP[1Nal][dD]CM[hArg]DWSTP[Hyp]WC-NH2 (linker 1-5-15 via TATA; also: NODAGA complexed with natCu) [natCu-1e] | 0.0237 µM | – | –
12 | {DOTA}-CP[2Nal][dD]CMRDWSTP[Hyp]WC-NH2 (linker 1-5-15 via TATA) [8c] | 3.29 µM | – | –
13 | Ac-CP[1Nal][dD]CM[hArg]DWSTP[Hyp]WC-NH2 (linker 1-5-15 via TATA) [1d (BCY8126)] | 0.0347 µM | – | –
14 | {DOTA}-CP[2Nal][dD]CMRDWSTP[Hyp]WC-OH (linker 1-5-15 via TATA) [8d (N188)] | 4.22 µM | – | –
15 | B2 | 0.379 µM | – | –
16 | {(R)‑NODAGA}-CP[1Nal][dD]C[Nle][hArg]DWSTP[Hyp]WC-NH2 (linker 1-5-15 via TATA) [3a] | 0.0416 µM | – | –
17 | Ac-CP[1Nal][dD]C[Nle][hArg]DWSTP[Hyp]WC-NH2 (linker 1-5-15 via TATA) [3b] | 0.0315 µM | – | –
18 | {(R)‑NODAGA}-CP[1Nal][dD]C[SeMet][hArg]DWSTP[Hyp]WC-NH2 (linker 1-5-15 via TATA) [5] | 0.0487 µM | – | –
